Results from the nanobody polyreactivity screen of Harvey et al. (2022).

Assay: yeast display, Sf9 membrane polyspecificity reagent, FACS + sequencing; frameworks hold sequencing errors
Outline: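 In a synthetic yeast display library (Saccharomyces cerevisiae BJ5465), nanobody expression was induced with galactose for 36–48 hours. FACS gates were set low and high (top ~1%) using anti-HA fluorescence for expression and streptavidin fluorescence for binding of the Sf9 membrane reagent. Each polyreactivity label is drawn from the gate of origin.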

QVQLEETGGGLLQAGGSLRLSSAASGRTFVNYAMGWYRQAPGKEREFVAAIDRRSGSTYYADSVKGRFTISRDNAKNTVYLQMTSLKPEDTAVDYCAASPYIYDSWGQGTQVTVSS
polyreactivity (PSR sort gate): low polyreactivity

QVQLGDSGGGLVHAGGSLSLSCAASGSTFAYYSMGWYRQAPGKERELVAGFTWTGGSTYYADSVKGRFTISRDNAKNTVYFQKNSLKPEDTAVYFCAVTYPYGYEYDHWGQGSQVTVSS
polyreactivity (PSR sort gate): low polyreactivity

QVQLGDSGGGLVQAGGSLRLSCAASGFSIFTYAMGWYRQAPGKERELVAAITTGGSTNYADSVKGRFTISRDNAKNTVYLKMNSLKPEDTALYYCAALRVSVILLVRLDYWGQGTQVTVSS
polyreactivity (PSR sort gate): low polyreactivity

QVQLGDSGGGLVQAGGSLRLSCAASGRIFGVYAMGWYRQAPGKERELVAAISRNGGSTYYADSVKGRFTISRDNAKNTVYLQMNSLKPEDTAVYYCATGGGVEAAGAYWGQGTQVTVSS
polyreactivity (PSR sort gate): low polyreactivity

QVQLGESGAGLVQAGGSLRLSCAASGRTFYRYAMGWYRQAPGKERELVAAISSSGGRTYYADSVKGRFTISRDNAKNTVYLQMNSLKPEDTAVYYCAKSGYHSLVLWIEDYWGQGTQVTVSS
polyreactivity (PSR sort gate): low polyreactivity

QVQLGESGAGLVQAGGSLRLSCAASGRTLRKYAMGLYTQAPGKERELVAAITTSGGSKYYADSVKGRFTISRDNAKNTVYLPMNSLKPEDTAVYYCAKCGYSGYHSSYDYWGQGTQVTVSS
polyreactivity (PSR sort gate): high polyreactivity

QVQLGESGGGFFKAGASLRVICAASGRTFRRNAKGWYRQSPGTERELVAAITCGGSTNYADSVKGRFTISRDNENNTVYLQMNSLKPEDTAVYYCNADSVWGWYTYDYWGQGTQVTVSS
polyreactivity (PSR sort gate): high polyreactivity

QVQLGESGGGIVQAGGSLRLSCAASGFIIRYNAMGWYRQAPGKERQFVAAISWGGGRTYYADSVKGRFTISRDNAKNTVYLQMNSLKPEDTAVYFCAAVSPHNRYGYKYDYWGQGTQVTVSS
polyreactivity (PSR sort gate): high polyreactivity

QVQLGESGGGLVQAGGSLGLSCAASGGTLRVNTMGWYRQAPGKERELVAAISTRSGRTYYADSVKGRFTISRDNAKYTVYLQMNSLKPEDTAVYYCAATLYRRRSAFDGDWGQGTQVTVSS
polyreactivity (PSR sort gate): high polyreactivity

QVQLGESGGGLVQAGGSLRLICAASGSIFDVNAMGWYRQAPGKERELVAAISDSGGSTYYADSVKGRFTISRDNAKNTVYLQMNSLKPEDTAVYYCNADWSWYNYDDFDYWGQGTQVTVSS
polyreactivity (PSR sort gate): low polyreactivity

QVQLGESGGGLVQAGGSLRLICAASGSTFYYNAMGWSRQAPGKEWELVAAITYSGGDTYYADSVKGRFTMSRDNAKNTVYLQMNSLKPEDTAVYYCAAEYYWYNVYTGHLWYDYWGQGTQVTVSS
polyreactivity (PSR sort gate): high polyreactivity

QVQLGESGGGLVQAGGSLRLRCAASGYILWNAMGWYRQAPGKERELVAAIRFRGGSTSYADSVKGRFTISRDNAKNTVYLQMNSLKPEDTAVYYCNARWWVIRPYQRHDYWGQGTQVTVSS
polyreactivity (PSR sort gate): low polyreactivity

QVQLGESGGGLVQAGGSLRLSCAASGFIFCYYAMGWYRQAPVKERELVAAITSGGRTYYSESVKGRFTISLDNAKNTFYLQMNSMKPEDTSVYYCNVVLRSVVSGDYWGQGTQVTVSS
polyreactivity (PSR sort gate): high polyreactivity

QVQLGESGGGLVQAGGSLRLSCAASGFIFEHYARGWYRQAPGTDTEFVARISWGGGSTYYADSVKGRFTISRDNAKNTVYLQMNSLKPEDTAVYYCHALEGVYFGYYPSDYWGQGTQVTVAS
polyreactivity (PSR sort gate): low polyreactivity

QVQLGESGGGLVQAGGSLRLSCAASGFSFWYYPMGWYRQAPGKERELVASIRYSGDSTSYADSVKGRFTISRDNAKNNVYFQMNSLKAEDTEVYYSAAVRYWYASYYTYEYWGQGTQVSVSS
polyreactivity (PSR sort gate): high polyreactivity

QVQLGESGGGLVQAGGSLRLSCAASGFTFYGNAMGWYRQAPGKERELVAAITYSGGRTYYADSVKGRFTISRDNAKNTVYLQMNSLKPEDTAVYYCARRRGYGQYDYWGQGTQVTVSS
polyreactivity (PSR sort gate): high polyreactivity

QVQLGESGGGLVQAGGSLRLSCAASGFTFYNYAMGWYRQAPGKERELVAAISTSGGSTYYADSVKGRFTISRDNAKNTVYLQMNSLKPEDTAVYYCAAQATAYSYAYYYWGQGTQVTVSS
polyreactivity (PSR sort gate): low polyreactivity

QVQLGESGGGLVQAGGSLRLSCAASGIIFISYDMGWYRQAPWKERELVARINWDGGSTYYADSVKGRFTISRDNAKNTVYLQMNSLKPEDTAVYYCAAGFVGTNYPLQGFSYEYWGQGTQVTVSS
polyreactivity (PSR sort gate): low polyreactivity

QVQLGESGGGLVQAGGSLRLSCAASGITFTHYVMGLYRQAPGKERELVAAISTSGGRTYYADSVKGRFTISRDHAKNSVYLQMNSLKPEDTAVYYCAAVSRAPGLRYDYWGQGTQVTVSS
polyreactivity (PSR sort gate): high polyreactivity

QVQLGESGGGLVQAGGSLRLSCAASGLIFVWNDMGWYRQAPGKEGELVADISDGSTYADSVKGRFTISRDNAKNTVYVQMNRLQPEHTAVYYCNKDNHDVELPVEFEYWGQGTQVTVSS
polyreactivity (PSR sort gate): high polyreactivity

QVQLGESGGGLVQAGGSLRLSCAASGNIFYRYAMGWYRQAPGKERELVAAITSDGSTYYADSVKGRFTISRDNAKNTVYLQMNSLKPEDTAVYYCAARRGTGSYSYRYPYGYDYWGQGTQVTVSS
polyreactivity (PSR sort gate): low polyreactivity

QVQLGESGGGLVQAGGSLRLSCAASGRIFGAYAMGWYRPAPGKERELVAAITSRGGNTYYADSVKGRFTISRDNAKKTAYLQLNSLKPQDTAVYYCAARHDKRRQYYVGQSAFDYGGQGTQVTVSS
polyreactivity (PSR sort gate): low polyreactivity

QVQLGESGGGLVQAGGSLRLSCAASGRIFSKNAMGWYRQAPGKERELVASIRQSGSNTYADSVKGRFTISRVNAKNTVYVQMNSLKPEDTAVYNCAASYFPLNSGRKVGYWGQGTQVTVSS
polyreactivity (PSR sort gate): low polyreactivity

QVQLGESGGGLVQAGGSLRLSCAASGRIFSYYAMGWYRQAPGKERELVATIDRSGDPTSYADSVKGRFTISRDNAKNTVYLQMNSLKPEDTAVYYCAATSKRARYDSWGHGTQVTVSS
polyreactivity (PSR sort gate): high polyreactivity

QVQLGESGGGLVQAGGSLRLSCAASGRTFLKNALGWYRPAPGKERELVAAITSGGSTNYADSVKGRFTISRDNAKNTVYFQMNCLKPEDTAVYYCAAEYTYGSPYDYWGQGTQVTVSS
polyreactivity (PSR sort gate): low polyreactivity

QVQLGESGGGLVQAGGSLRLSCAASGRTFWSYAMGWYREAAGKERELVAAITSSGGTTNDADSVKGRFTISRDNAKNTVYLQMNSLKPEDTAVYYCAAYSWYFGSRYDYWGQGTQVTVSS
polyreactivity (PSR sort gate): low polyreactivity

QVQLGESGGGLVQAGGSLRLSCAASGRTFYTNARGWYRQAAGKARELAADISRGGTTYYADSVKGRFTISRDNAKNTVYLQMNSLKPQDTAVYYSAAEGHELTEGDSWGQGTQVTVSS
polyreactivity (PSR sort gate): low polyreactivity

QVQLGESGGGLVQAGGSLRLSCAASGSIFAYYAMGWYRQAPGKERELVAGISGSGGSTYYADSVKGRFTISRDNAKNTVYLQMNSLKPEDTAVYYCAVDGRRNGDVRYNYWGQGTQVTVSS
polyreactivity (PSR sort gate): high polyreactivity

QVQLGESGGGLVQAGGSLRLSCAASGSIFRGYAMGWYRQAPGKGRELVAAISWSGASTYYADSVKGRFTISLDNAKNTVYLQMNSLKPEDTAVYYCAAVQWTGYPFDYWGQGTQVTVSS
polyreactivity (PSR sort gate): high polyreactivity

QVQLGESGGGLVQAGGSLRLSCAASGSIFRSYAMGWYRQAPGKERELVAAISWRGGRTYYADSVKGRFTISRDNAKNTVYLQMNSLKPEDTAVYYCAARNRAQQGTRDHDYWGQGTQVTLSS
polyreactivity (PSR sort gate): high polyreactivity

QVQLGESGGGLVQAGGSLRLSCAASGSIFVRNAMGWYRQAPGKERELVAAINGRGTSTYYADSVKGRFTISRDNAKNTVYLQMNSLKPEDTAVYYCATSLTSPRRAYGYWGQGTQVTVSS
polyreactivity (PSR sort gate): high polyreactivity

QVQLGESGGGLVQAGGSLRLSCAASGSMFYSNARGWYRQAPGTERELVASIRGSGVSTYYADSVKGRFTISRDNAKNTVYLPMNSLKPEDTAVYDCAPRYGRSYFGYYYWGQGTQVTVSS
polyreactivity (PSR sort gate): high polyreactivity
